According to patent publication US20260131007A1, “Mannose 6-Phosphate Receptor Binding Compounds for the Degradation of Extracellular Proteins” (Avilar Therapeutics, Inc., priority 2023, published 2026):
Several values for one entry are separate records, joined by “and”; a condition that tells them apart may be missing. Equal values may be shown once. Bridge positions count the residues as written; N and C are the ends. Square brackets hold non-standard residues; d marks the D form.

B1: Compound 12 (peptide)
peptide: cyclo(ELVWCT[dP]PDCAWHLG)
modifications: disulfide 5-10; not fully specified (residue 8); also: one triazole-linked A83 group on the PEG8 linker
B2: Compound 2 (peptide)
peptide: cyclo(ELVWCT[dP]PDCAWHLG)
modifications: disulfide 5-10; not fully specified (residue 8); also: trivalent linker structure not given here
B3: Compound 8 (peptide)
peptide: cyclo(ELVWCT[dP]PDCAWHLG)
modifications: disulfide 5-10; not fully specified (residue 8); also: one triazole-linked A20 group on the PEG8 linker
B4: Compound 5 (peptide)
peptide: cyclo(ELVWCT[dP]PDCAWHLG)
modifications: disulfide 5-10; not fully specified (residue 8); also: trivalent linker structure not given here

Key:
[1] = target: T1, hIGF-IIR and IgG1 (ternary complex) (Homo sapiens, UniProt P01857+P11717); assay: HTRF-based ternary complex formation assay for hIGF-IIR targeting Extracellular Protein Degraders; format: binding
T1 construct: purchased R&D Systems 6418-GR
From the text: The ternary complex formation assay is designed to identify and determine the potency of Extracellular Protein Degrader molecules which can induce the formation of ternary complex between the Extracellular Protein Degrader hIGF-IIR. Titrating Extracellular Protein Degrader to fixed amount of hIGF-IIR results in a bell-shaped curve (except molecules whose binary complex affinity between Extracellular Protein Degrader and hIGF-IIR). The peak mean represents Extracellular Protein Degrader concentration at which maximum ternary complex is formed. Too much or too little Extracellular Protein Degrader leads to decreased ternary complex formation due to formation of binary complex (Hook effect). Dose response of Extracellular Protein Degrader compounds (16-point 3-fold dilution series, 100X) were prepared by Echo Acoustic Liquid Handler (Beckman Coulter Life Sciences) using 384-well LDV microplate. Then 200 nL of the solutions were transferred to an OptiPlate 384-well microplate (PerkinElmer, 6007290). To the assay plate, 10 μL working solution containing 60 nM of Biotinylated-IgG1 (Viva 20211108) and 60 nM of His-tagged hIGF-IIR (R&D Systems, 6418-GR) in assay buffer 50 mM Tris, pH 7.5, 150 mM NaCl, 50 mM CaCl2, 0.01% Tween-20 were added. The plate was incubated for 60 min at room temperature with gentle shaking to allow molecular interaction to reach equilibration. Following this, 10 μL of HTRF detection solution containing 15 nM Streptavidin-d2 (PerkinElmer, 610SADLA) and 0.7 nM MAb Anti 6HIS—Tb cryptate (PerkinElmer, 61HISTLA) in PPI Terbium detection buffer (PerkinElmer, 61DB10RDF) were added. The assay plate was incubated at room temperature with gentle shaking for 60 min to allow HTRF signal to develop. The plate was gently spun on a centrifuge then placed on an EnVision plate reader (Perkin Elmer, EnVision 2104) to read fluorescence ratio of 665 nm/615 nm. Data were analyzed by fitting with Bell-shaped non-linear regression model using GraphPad Prism (GraphPad Software, LLC; version 9.4.1). Mean fluorescence intensity is graphed versus compound concentration and the EC50 for TCF is calculated from the inflection point of the curve (GraphPad).

[2] = system: K562 cells; assay: Ternary complex formation (TCF) in K562 cells, flow cytometry with AF488-labeled human IgG; format: cell-based; conditions: AF488-labeled human IgG 300 nM, 4° C., 1 hour
Protocol: K562 cells were seeded in 96-well assay plate using K562 cell medium, then compounds and AF488-labeled human IgG (final concentration of 300 nM) were added at 4° C. and incubated for 1 hour. Afterwards, the cells were washed once with 1×PBS+0.1% BSA (Cold) and centrifuged at 1000 rpm for 5 minutes. Next, cells were re-suspended in 150 μL 1×PBS+0.1% BSA and ran flow cytometry on iQue® Screener PLUS.

[3] = system: human IgG (hIgG); assay: DMPK study: degradation of coadministered human IgG in rats; format: in vivo; conditions: male SD rats, IgG 200 mg/kg IV, compound IV an hour later; FIG. 11, FIG. 12
Protocol: The dose formulation of IgG at 200 mg/kg was administered via IV injection to male SD rats, and Compound 5 was administered via IV injection an hour later (after IgG dosing). About 0.2 mL of blood was collected via jugular vein at each time point and was transferred into pre-cooled low binding EP tubes containing 4 μL of K2-EDTA (0.5 M) as anti-coagulant placed on wet ice. After blood was collected, the samples were processed for plasma by centrifugation at approximately 4° C., 3200 g for 10 minutes, the plasma was obtained within 30 minutes of blood collection. Then the plasma was transferred to two clean low binding EP tubes (50 μL each, one for PK, one for PD) and quickly frozen over dry ice and kept below −60° C. or lower for LC-MS/MS analysis. Plasma concentration versus time data was plotted in graph and analyzed by non-compartmental approaches using the Phoenix WinNonlin 6.3 software program. Related PK parameters were calculated according to dosing route, e.g. CL, Vdss and C0 for intravenous administration, Cmax, Tmax or % F for extravascular administration, and T1/2, AUC(0-1), AUC(0-inf), MRT(0-1), MRT(0-inf) for all routes. The quantification of human IgG concentration in animal plasma was conducted using human IgG ELISA kit. Plotted pharmacokinetic and pharmacodynamic data can be found in FIG. 10, FIG. 11, FIG. 12, and FIG. 13.

[4] = system: IgG; assay: Uptake and degradation in K562 cells (Western blot); format: cell-based, human; conditions: K562 cells treated with compound and IgG; FIG. 14-17
Protocol: On day one, cells were harvested, counted, and seeded 1 million/well in 6 well plates for each cell line. On day two, cells were treated with compounds and IgG (Sigma, Cat #14506 dissolved in medium). Treated cells were washed three times with PBS, followed by addition of 200 μL of RIPA buffer (+HALT protease and phosphatase inhibitors) per well. Lysates were left on ice for 5 minutes then were collected into microcentrifuge tubes using a cell scraper. Lysates were then kept on a shaker for 30-60 minutes at 4° C. followed by centrifugation at 14,000 rpm at 4° C. for 15 minutes. Then, supernatants were transferred to fresh tubes and total protein concentration of each sample was determined using Pierce BCA kit. Next, 25 ug total protein of each sample was resolved on a 4-20% gels and transferred to PVDF membranes. Membranes were blocked in TBST+5% milk (made fresh) for one hour while shaking at room temperature. Then, the first antibody was added in TBST+5% milk at 4° C. overnight: a) Rabbit anti-human IgG, Abcam; Cat #ab181236-1:1000, b) anti-β-actin, Cell signaling Tech, Cat #3700S)-1:3000. On the next day, membranes were washed with TBST 10 minutes each for three times. Later, the second antibody was added in TBST+5% milk at room temperature over one hour: a) IRDye 800CW Goat anti Rabbit IgG, Licor, Cat #926-32211)-1:10,000; b) IRDye 680RD Goat anti Mouse IgG (Licor Cat #926-68078)-1:10,000. Then, membranes were washed with TBST 10 minutes each for three times. The results were detected by Licor. Data from the uptake and degradation assay is shown in FIG. 14, FIG. 15, FIG. 16, and FIG. 17.

[5] = target: Biotinylated-IgG1 (Viva 20211108); assay: HTRF ternary complex formation: compound titrated into 60 nM biotinylated IgG1 + 60 nM His-tagged hIGF-IIR (R&D 6418-GR); grade read by the legend '<50 nM = ***'
[6] = target: AF488-labeled human IgG (human); assay: flow cytometry, ternary complex formation on K562 cells at 4 C, compound + 300 nM AF488-labelled human IgG; grade read by the legend '<50 nM = ***'
[7] = target: AF488-labeled human IgG (human); assay: flow cytometry, ternary complex formation on K562 cells at 4 C, compound + 300 nM AF488-labelled human IgG; grade read by the legend '50 nM < IC50 < 250 nM = **'

Molecule	EC50 [5] [nM]	EC50 [6] [nM]	also measured
CC(C)C[C@@H]1NC(=O)[C@H](Cc2cnc[nH]2)NC(=O)[C@H](Cc2c[nH]c3ccccc23)NC(=O)[C@H](C)NC(=O)[C@@H]2CSSC[C@H](NC(=O)[C@H](Cc3c[nH]c4ccccc34)CC(=O)[C@H](C(C)C)NC(=O)[C@H](CC(C)C)NC(=O)[C@H](CCC(=O)O)NC(=O)CNC1=O)C(=O)N[C@@H]([C@@H](C)O)C(=O)N1CCC[C@@H]1C(=O)N1C[C@@H](NC(=O)COCCOCCOCC(=O)NC(COCCC(=O)NCCOCCn3cc(CCO[C@H]4O[C@H](CCP(=O)(O)O)[C@@H](O)[C@H](O)[C@@H]4O)nn3)(COCCC(=O)NCCOCCn3cc(CCO[C@H]4O[C@H](CCP(=O)(O)O)[C@@H](O)[C@H](O)[C@@H]4O)nn3)COCCC(=O)NCCOCCn3cc(CCO[C@H]4O[C@H](CCP(=O)(O)O)[C@@H](O)[C@H](O)[C@@H]4O)nn3)C[C@H]1C(=O)N[C@@H](CC(=O)O)C(=O)N2 [Compound 5]	–	–	EC50 [1]: < 50 nM; EC50 [2]: 50 to 250 nM; degradation of coadministered human IgG (percent of initial hIgG over time) [3]: degradation of coadministered human IgG; degradation of IgG (gel electrophoresis image) [4]: degradation of IgG
B1	< 50	< 50	–
B2	< 50	< 50	–
B3	< 50	< 50	–
B4	< 50	–	EC50 [7]: > 50 nM and < 250 nM
